Measured values from patent publication US20120231006A1 (Amgen, published 2012).

What was measured:
human Orai1 [1] = biological target: T1, human Orai1 (human, UniProt Q96D31 1-301); assay: cell-based or functional assay
[2] = biological target: T2, mOrai1-hOrai1 ECL2 (…) protein (human/mouse chimera, UniProt Q8BWG9 1-304 (mouse entry)); assay: FACS, 293EBNA, RFI-POC grade; set-up: concentration or dose not given beside the values
T2 construct: also called Ch
How it was run: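 HEK-293-EBNA cells expressing mOrai1-hOrai1 ECL2 chimeric mutants stained with recombinant monoclonal antibodies, then PE-labelled goat anti-human IgG F(ab′)2, and analysed by FACS. RFI-POC derived from geometric mean fluorescence; graded +++ (40–100%), ++ (5–<40%), + (1–<5%), − (<1%).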

[3] = biological target: T3, hOrai1-mOrai1 ECL2 chimeric protein (human/mouse chimera, UniProt Q96D31 1-301); assay: FACS, 293EBNA; set-up: concentration or dose not given beside the values
T3 construct: human Orai1 with mouse ECL2; also called Ch
T3 sequence (Q96D31 other isoform, or with tags, fused parts or gaps mutant): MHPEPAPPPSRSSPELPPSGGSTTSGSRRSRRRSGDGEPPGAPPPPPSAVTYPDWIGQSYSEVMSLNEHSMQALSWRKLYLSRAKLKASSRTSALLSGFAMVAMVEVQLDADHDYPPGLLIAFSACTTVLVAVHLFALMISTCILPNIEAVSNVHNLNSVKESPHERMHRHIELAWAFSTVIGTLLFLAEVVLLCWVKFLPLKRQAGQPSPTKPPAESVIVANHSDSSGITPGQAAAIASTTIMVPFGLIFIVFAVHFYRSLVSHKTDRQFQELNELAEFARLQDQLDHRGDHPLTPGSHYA
Protocol: (§1) FACS binding analysis. Transfected 293EBNA cells transiently expressed hOrai1-mOrai1 ECL2 or mOrai1-hOrai1 ECL2 chimera. The transfected cells were harvested at 48 hours post-transfection. Cells transfected with pcDNA3.1 were used as negative controls. Cells were washed once with ice-cold 1×PBS, resuspended in ice-cold FACS buffer (1×D-PBS+2% goat serum), and 2×10⁵ cells in 100 μL were stained per antibody combination. All antibody incubation steps were performed on ice for 1 hour. […] Next, the unlabelled antibody was detected using goat F(ab′)₂ anti-mouse or anti-human IgG-phycoerythrin (IgG-PE), followed by a wash with 200 μL of ice-cold FACS buffer before flow cytometry analysis. Unstained cells and cells stained with detecting antibodies were used as negative controls. The values of relative level of fluorescence were calculated using FCS Express (De Novo Software) and mean values were calculated using log-transformed data (geometric mean). The results of the FACS analysis are shown in FIG. 15A-B, which supports the conclusion that the hOrai1 ECL2 domain is the region of hOrai1 where antibodies of the present invention bind.
(§2) Representative results of FACS analysis of binding to the mutant hOrai1-mOrai1 ECL2 chimera described above by exemplary anti-hOrai1 antibodies of the present invention are shown in FIG. 17A-D, Table 10A and Table 10B below. Table 10A (Campaign 1) and Table 10B (Campaign 2) show the gain in binding ability of exemplary monoclonal antibodies to hOrai 1-mOrai 1 ECL2 chimera mutants as determined by FACS.

[4] = biological target: T4, hOrai1-mOrai1 ECL2 (…) protein (human/mouse chimera, UniProt Q96D31 1-301); assay: FACS, 293EBNA; set-up: concentration or dose not given beside the values
T4 construct: also called Ch
T4 sequence (Q96D31 other isoform, or with tags, fused parts or gaps): as the sequence (Q96D31 other isoform, or with tags, fused parts or gaps mutant) above, with A216P, E217A, V219G, I220A, V221A, H224V, D226T counted along it
Protocol: as §1, §2

[5] = biological target: T5, hOrai1-mOrai1 ECL2 (PASGAA) protein (human/mouse chimera, UniProt Q96D31 1-301); assay: FACS, 293EBNA; set-up: concentration or dose not given beside the values
T5 construct: also called Ch
T5 sequence (Q96D31 other isoform, or with tags, fused parts or gaps): as the sequence (Q96D31 other isoform, or with tags, fused parts or gaps mutant) above, with A216P, E217A, V219G, I220A, V221A counted along it
Protocol: as §1, §2

[6] = biological target: T6, hOrai1-mOrai1 ECL2 (AANVST) protein (human/mouse chimera, UniProt Q96D31 1-301); assay: FACS, 293EBNA; set-up: concentration or dose not given beside the values
T6 construct: also called Ch
T6 sequence (Q96D31 other isoform, or with tags, fused parts or gaps): as the sequence (Q96D31 other isoform, or with tags, fused parts or gaps mutant) above, with V221A, H224V, D226T counted along it
Protocol: as §1, §2

[7] = biological target: T7, hOrai1-mOrai1 ECL2 (GAA) protein (human/mouse chimera, UniProt Q96D31 1-301); assay: FACS, 293EBNA; set-up: concentration or dose not given beside the values
T7 construct: also called Ch
T7 sequence (Q96D31 other isoform, or with tags, fused parts or gaps): as the sequence (Q96D31 other isoform, or with tags, fused parts or gaps mutant) above, with V219G, I220A, V221A counted along it
Protocol: as §1, §2

[8] = biological target: T8, hOrai1-mOrai1 ECL2 (VST) protein (human/mouse chimera, UniProt Q96D31 1-301); assay: FACS, 293EBNA; set-up: concentration or dose not given beside the values
T8 construct: also called Ch
T8 sequence (Q96D31 other isoform, or with tags, fused parts or gaps): as the sequence (Q96D31 other isoform, or with tags, fused parts or gaps mutant) above, with H224V, D226T counted along it
Protocol: as §1, §2

human Orai1 [9] = biological target: T1, human Orai1; assay: cell-based or functional assay; remark: listed apart in the source
[10] = biological target: T9, mOrai1-hOrai1 ECL2 chimeric protein (human/mouse chimera, UniProt Q8BWG9 1-304 (mouse entry)); assay: FACS, 293EBNA transfectants [D00028 FIG. 16B]
T9 construct: mouse Orai1 with human ECL2; also called Ch
T9 sequence (Q8BWG9 other isoform, or with tags, fused parts or gaps mutant): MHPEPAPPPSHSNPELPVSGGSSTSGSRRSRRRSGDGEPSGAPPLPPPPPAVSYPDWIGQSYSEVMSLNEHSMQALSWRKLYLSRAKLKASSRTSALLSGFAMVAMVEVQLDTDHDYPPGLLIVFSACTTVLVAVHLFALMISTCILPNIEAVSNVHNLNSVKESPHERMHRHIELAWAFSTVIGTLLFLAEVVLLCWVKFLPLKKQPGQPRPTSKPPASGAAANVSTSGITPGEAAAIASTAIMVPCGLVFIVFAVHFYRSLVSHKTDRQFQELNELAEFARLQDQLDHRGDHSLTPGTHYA
Text: (§3) FIG. 16A-D illustrates the results of FACS analysis showing binding to the indicated mOrai1-hOrai1 ECL2 chimeric mutants expressed on the surface of HEK-293-EBNA cells. Transfected cells were stained first with recombinant monoclonal antibodies then counter-stained with a secondary phycoerythrin-labeled goat (“Gt”) anti-human (“Hu”) IgG F(ab′)₂ antibody fragment and visualized using FACS. In FIG. 16B and FIG. 16D, The values of Relative Fluorescence Intensity as Percent of Control (RFI-POC) are calculated from the relative fluorescence intensity geometric mean (Geo Mean). The geometric mean is an average calculated by multiplying a series of numbers and taking the nth root where n is the number of numbers in the series. It is a statistical average of a set of transformed numbers often used to represent a central tendency in a highly variable data set that minimizes the effects of extreme values.
(§4) Table 11A and Table 11B feature a schematic representation of the POC data from FIG. 16B and FIG. 16D, respectively, where the binding results are recorded as (+++) denoting binding POC from 40% to 100%, (++) for POC of 5% to less than 40%, (+) for POC from 1% to less than 5% and (−) as lack of binding with POC less than 1%.

[11] = biological target: T10, mOrai1-hOrai1 ECL2 (VIV) protein (human/mouse chimera, UniProt Q8BWG9 1-304 (mouse entry)); assay: FACS, 293EBNA transfectants [D00028 FIG. 16B]
T10 construct: also called Ch
T10 sequence (Q8BWG9 other isoform, or with tags, fused parts or gaps): as the sequence (Q8BWG9 other isoform, or with tags, fused parts or gaps mutant) above, with G221V, A222I, A223V counted along it
Text: as §3, §4

[12] = biological target: T11, mOrai1-hOrai1 ECL2 (HSD) protein (human/mouse chimera, UniProt Q8BWG9 1-304 (mouse entry)); assay: FACS, 293EBNA transfectants [D00028 FIG. 16B]
T11 construct: also called Ch
T11 sequence (Q8BWG9 other isoform, or with tags, fused parts or gaps): as the sequence (Q8BWG9 other isoform, or with tags, fused parts or gaps mutant) above, with V226H, T228D counted along it
Text: as §3, §4

T1 sequence (Q96D31 whole entry): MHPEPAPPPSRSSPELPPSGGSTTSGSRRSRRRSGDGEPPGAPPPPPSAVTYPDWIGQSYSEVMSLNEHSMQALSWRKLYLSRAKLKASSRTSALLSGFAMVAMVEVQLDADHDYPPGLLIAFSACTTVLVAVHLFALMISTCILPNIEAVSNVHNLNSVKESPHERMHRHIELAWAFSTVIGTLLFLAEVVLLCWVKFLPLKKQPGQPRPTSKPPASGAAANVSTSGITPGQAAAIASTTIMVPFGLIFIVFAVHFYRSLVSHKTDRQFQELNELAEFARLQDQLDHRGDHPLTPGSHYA
T2 sequence (Q8BWG9 other isoform, or with tags, fused parts or gaps): as the sequence (Q8BWG9 other isoform, or with tags, fused parts or gaps mutant) above, with P218A, A219E, G221V, A222I, A223V, V226H, T228D counted along it

Row | Binder | IC50 IFN-γ, whole blood Donor A, recombinant mAb (human Orai1 [1]) [nM] | IC50 IFN-γ, whole blood Donor B, recombinant mAb (human Orai1 [1]) [nM] | IC50 IL-2, whole blood Donor A, recombinant mAb (human Orai1 [1]) [nM] | IC50 IL-2, whole blood Donor B, recombinant mAb (human Orai1 [1]) [nM] | POC (percent of control, FACS Geo Mean relative to binding to Ch. 1) [2] [%] | percent of control (POC) of FACS Geo Mean [3] [%] | percent of control (POC) of FACS Geo Mean [4] [%] | percent of control (POC) of FACS Geo Mean [5] [%] | percent of control (POC) of FACS Geo Mean [6] [%] | percent of control (POC) of FACS Geo Mean [7] [%] | percent of control (POC) of FACS Geo Mean [8] [%] | IC50, NFAT-mediated luciferase assay (FIG. 6C) (human Orai1 [9]) [nM] | binding result [10] | binding result [11] | binding result [12]
1 | mAb 5B1.1 (antibody, human IgG2, lambda, V domains shown, fully human IgG2 lambda, Campaign 2; also called mAb 5Bl1.1) VH: QVQLVQSGAEVKKPGASVKVSCKASGYTFTDYYINWVRQAPGQGLEWMGWINPNSGGSSYAQKFQGRVTMTRDTSISTAHMELIRLRSDDTAVYYCARERGGIEDWFDPWGQGTLVTVSS VL: QSVLTQPPSVSGAPGQRVTISCTGSSSNIGAGYDVHWYQQLPGTAPKLLIYGNSNRPSGVPDRFSGSKSGTSASLAITKFQAEDEAVYYCQSYGSGLSGVVFGGGTKLTVLG | 0.52 | 34.8 | 2.08 | 9.52 | 1 to 5 |  |  |  |  |  |  |  |  |  | 
2 | mAb 2B4.1 (antibody, human IgG2, lambda, V domains shown) VH: QVQLVQSGAEVKKPGASVKVSCKASGYTFTDYYMHWVRQAPGQGLEWMGWINPNSGGTNYVQKFQDRVTMTRDTSITTAYMELTRLRSDDTAVYYCAREEGDYGMDVWGQGTTVTVSS VL: QSVLTQPPSVSGAPGQRVTISCTGSNSNIGTGYDVHWYQKLPGTAPRLLIYSHFNRPSGVPDRFSGSTSGTSASLAITGLQAEDEADYYCQSYDSSLSGSVFGGGTKLTVLG |  |  |  |  |  | < 1 | < 1 | < 1 | < 1 | < 1 | < 1 | 1800 | binds | binds | binds
